Substitutions are numbered along the chain they refer to. No end group written: not given here.
T1: human TREM2 full length stalk region peptide (aa 129-172) (human, biotinylated (site not stated))
T1 construct: also called Human TREM2 peptide (aa 129-172); full-length TREM2 stalk peptide
T1 peptide: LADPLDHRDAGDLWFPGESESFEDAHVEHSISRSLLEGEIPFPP

T2: human TREM2 truncated stalk peptide (aa 149-163) (human, also: biotinylated (site not given here))
T2 construct: also called Human TREM2 peptide (aa 149-163); truncated stalk peptide containing the ADAM10/17 cleavage site
T2 peptide: SFEDAHVEHSISRSL

T3: mouse TREM2 full length stalk region peptide (aa 131-169) (mouse, UniProt Q99NH8 131-169, biotinylated (site not stated))
T3 peptide (looked up): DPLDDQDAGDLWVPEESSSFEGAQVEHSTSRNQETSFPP

T4: His-tagged human TREM2 ECD (human, UniProt Q9NZC2 19-172)
T4 construct: Biacore and HDX say only recombinant human TREM2 (ECD); also called recombinant human TREM2; hTREM2
T4 sequence: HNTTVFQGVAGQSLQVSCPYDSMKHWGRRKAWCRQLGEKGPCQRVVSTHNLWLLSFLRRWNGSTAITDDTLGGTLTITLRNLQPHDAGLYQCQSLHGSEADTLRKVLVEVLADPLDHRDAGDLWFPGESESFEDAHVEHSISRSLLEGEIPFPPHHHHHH

T5: human TREM2 on the cell surface (human, UniProt Q9NZC2 19-230)
T5 construct: also called surface TREM2; TREM2 expressed in HEK293-H6 cells
T5 sequence: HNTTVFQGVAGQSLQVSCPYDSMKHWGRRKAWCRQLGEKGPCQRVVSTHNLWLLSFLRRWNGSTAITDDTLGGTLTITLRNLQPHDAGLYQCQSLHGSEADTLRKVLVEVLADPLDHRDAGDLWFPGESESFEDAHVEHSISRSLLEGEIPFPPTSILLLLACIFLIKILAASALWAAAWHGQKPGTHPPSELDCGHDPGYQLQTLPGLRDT

B1: CL0020120 (antibody, V domains shown)
VH: EVQLQQSGPELVRTGASVKISCRASSYSFTDNYIHWVKQTHGRSLEWIGYISGYTGATSYNQKFKGKATFTVDTSSSTAYMQFNSLTSEDSAVYYCARSTMIAPYGMDYWGQGTSVTVSS
VL: DIVMTQSHKFMSTSVGDRVNITCKASQDVVTAVAWYQQKPGQSPKLLIYWASTRHTGVPDRFTGSGSGTDFTLTISNVQSEDLADYFCQQYSRYPLTFGAGTKLELK
notes: also called Clone CL0020120
B2: CL0020113 (antibody, V domains shown)
VH: QIQLVQSGPELKKPGESLKISCKASGYTFTDYAMQWVKQAPGKGLQYMGWINTQTGKPTYADDFKERFVFSLETSASTAYLKINNLKNDDMATYLCARSYGGEYNWIAYWGQGTLVTVSS
VL: DIVMTQTPSSQAVSAGEKVTMNCKSSQSLLYNENKKNYLAWYQQKPGQSPKLLIYWASTRESGVPDRFIGSGSGTDFTLTISSVQAEDLAVYYCQQSYNFPPTFGGGTKLELK
notes: also called Clone CL0020113
B3: CL0020210 (antibody, V domains shown)
VH: QIQLVQSGPELRKPGETVKISCKASGYTFTTYGMSWVKQAPGKGLKWMGWINTYSGLPRHSDDFKGRFAFSLETSASTAYLQINNLKNEDTATYFCAREVYYGSRKTAWFAYWGQGTLVTVSA
VL: DLVMSQSPSSLAVSVGERITMTCKSSQSLLYSNDQKNYLAWYQQIPGQSPKLLLYWASTRESGVPDRFTGSGSGTDFTLTISSVKAEDLAVYFCQQYYNYPPTFGAGTKLELK
notes: also called Clone CL0020210; CL020210
B4: CL0020127 (antibody, V domains shown)
VH: EVQLQQSGPVLVKPGASVKMSCKASGYKFTDYYMNWVKQSHGKSLEWIGTINPYSGGISYNQKFKGKATLTVDKSSSTAYMELNSLTSEASAVYYCTRRNWDGRYAMDYWGQGTSVTVSS
VL: B1 VL with N20S, V30S, D85E, R93S, L96F, A100G, L106I
notes: also called Clone CL0020127
B5: CL0020206 (antibody, V domains shown)
VH: B4 VH with K28T, T50I, T69I
VL: B1 VL with N20S, C23Y, V30G, T31S, A51T, R93S, L96F, A100G, L106I
notes: also called Clone CL0020206
B6: CL0020195 (antibody, V domains shown)
VH: EVQLVESGGGLVQPGRSMMLSCSASGFTFSNYHMAWVRQAPTTGLEWVASITTGSGNTYYRHSVKGRFTISRDNAKSTLYLQMDSLRSEDTASYYCARRWYGGYEGYYFDYWGQGVMVTVSS
VL: DIQMTQSPSLLSASVGDRVTLSCKAGQNVNNYLAWYQQKLGEAPKLLIYNANILQTGFPSRFSGTGSGTDFTLTISSLQPEDVATYFCQQYNSWTTFGGGTKLELK
notes: also called Clone CL0020195
B7: CL0020205 (antibody, V domains shown)
VH: EVQLQQSGPVLVKPGASVKMSCKASGYTFTDYYVHWVKQSHGKSLEWIGLINPYTGTTSYNQRFRVKATLTVDKSSSTAYMEVNSLTSEDSAVYYCARSRVYYGSSLFAFWGQGTLVTVSA
VL: DIVMTQSPSSLSVSAGEKVTMSCKSSQSLLNSGNQKNYLAWYQQKPGQPPKLLIYGASTRESGVPDRFTGSGSGTDFTLTISSVQAEDLAVYYCQNDHSYPYTFGGGTKLEIK
notes: also called Clone CL0020205
B8: CL0020188-1 (antibody, V domains shown)
VH: EVQLVESGGGLVQPGGSLRLSCAASGFTFTDFYMSWVRQAPGKGLEWVSVIRNKANGYTAGYNPSVKGRFTISRDNSKNTLYLQMNSLRAEDTAVYYCARLTYGFDYWGQGTLVTVSS
VL: DIVMTQTPLSLPVTPGEPASISCQSSKSLLHSNGKTYLNWYLQKPGQSPQLLIYWMSTRASGVPDRFSGSGSGTDFTLKISRVEAEDVGVYYCQQFLEYPFTFGQGTKVEIK
notes: also called Clone CL0020188-1
B9: CL0020188-2 (antibody, V domains shown)
VH: B8 VH with A24G, L45P, V48L
VL: B8 VL
notes: Humanized variant of CL0020188 (hVH NG/3 m, hVL NG/graft); also called Clone CL0020188-2
B10: CL0020188-3 (antibody, V domains shown)
VH: B8 VH
VL: B8 VL with N33T
notes: Humanized variant of CL0020188 (hVH NG/graft, hVL TG/graft); also called Clone CL0020188-3
B11: CL0020188-5 (antibody, V domains shown)
VH: B8 VH with G57A
VL: B8 VL
notes: Humanized variant of CL0020188 (hVH NA/graft, hVL NG/graft); also called Clone CL0020188-5
B12: CL0020188-6 (antibody, V domains shown)
VH: B8 VH with A24G, L45P, V48L, G57A
VL: B8 VL
notes: Humanized variant of CL0020188 (hVH NA/3 m, hVL NG/graft); also called Clone CL0020188-6
B13: CL0020188-8 (antibody, V domains shown)
VH: B8 VH with A24G, L45P, V48L, G57A
VL: B8 VL with N33T
notes: Humanized variant of CL0020188 (hVH NA/3 m, hVL TG/graft); also called Clone CL0020188-8

Molecular target: T1, human TREM2 full length stalk region …
Assay: ELISA on biotinylated peptide captured by streptavidin; A450 normalised to isotype control
Experimental: (§1) TREM2 antibodies were evaluated for binding to human and mouse TREM2 stalk region peptides. […] Antibody binding to TREM2 stalk peptides was detected using standard sandwich ELISA. Briefly, a 96-well half-area ELISA plate was coated with streptavidin overnight at 4° C. The following day, biotinylated TREM2 stalk peptides diluted in 1% BSA/PBS were added to the plate and incubated for 1 hour. Antibodies diluted in 1% BSA/PBS were then added and incubated for 1 hour. Antibodies bound to peptide were detected with anti-human kappa-HRP secondary antibody (Bethyl Laboratories, Inc.) diluted in 1% BSA/PBS. Plates were assayed by reaction with a detection reagent (One-step TMB Ultra, Thermo) and measurement of absorbance at 450 nm (A450) by standard spectrophotometry instrumentation (BioTek®). Data are shown as normalized values (fold over background where background=isotype control).

Binder	fold over background (A450) [fold]
B1	1.2
B2	47
B3	50
B4	1.4
B5	1.8
B6	1.3
B7	1.3

Molecular target: T2, human TREM2 truncated stalk peptide (aa …)
Assay: as above
Experimental: as §1

Binder	fold over background (A450) [fold]
B1	1.2
B2	1.4
B3	1.5
B4	1.2
B5	1.6
B6	1.1
B7	1.2

Molecular target: T3, mouse TREM2 full length stalk region …
Assay: as above
Experimental: as §1

Binder	fold over background (A450) [fold]
B1	1.2
B3	25
B4	1.3
B5	1.6
B6	1.1
B7	1.1

Molecular target: T4, His-tagged human TREM2 ECD
Assay: SPR (Biacore)
Experimental: (§2) Surface plasmon resonance (Biacore™ 8K instrument) was used to measure anti-TREM2 antibody affinities for human and cynomolgus TREM2 ECD. Anti-TREM2 antibodies were captured using Human Fab Capture Kit (GE Healthcare Life Sciences, Catalog No. 28958325) on a Biacore Series S CM5 sensor chip (GE Healthcare Life Sciences, Catalog No. 29149604). Serial 3-fold dilutions of recombinant human or cynomolgus TREM2 were injected at a flow rate of 30 μL/min. Antibody binding was monitored for 300 seconds, followed by monitoring of antibody dissociation for 600+seconds in HBS-EP+ running buffer (GE Healthcare Life Sciences, Catalog No. BR100669). The binding response was corrected by subtracting the RU value from a blank flow cell. A 1:1 Languir model of simultaneous fitting of kₒₙ and koff was used for kinetics analysis.
(§3) Sequence optimization was conducted by searching within CDR sequences for residues that are susceptible to chemical modification (e.g., asparagine deamidation motifs (NG), aspartic acid isomerization motifs (DS), and potential oxidation residues (tryptophan (W) and methionine (M)) and making amino acid substitutions with conservative and germline residues to remove such sequence liabilities. Humanized and sequence-optimized variants of anti-TREM2 antibodies were then analyzed for binding kinetics using Biacore and dose-titrated cell binding to HEK293-H6 cells (see, Example 1 for representative protocols).

Binder	Kd [nM]
B8	2.3
B9	3.4
B10	6.8
B11	5.1
B12	4
B13	7.3

Molecular target: T5, human TREM2 on the cell surface
Assay: flow cytometry, dose-titrated binding to HEK293-H6 cells
Experimental: After incubation, the cells were centrifuged and washed in FACS buffer (PBS+0.5% BSA) twice. Mixed cells were resuspended in FACS buffer with human Trustain FcX solution (Biolegend, Catalog No. 422302) at a density of 10⁶/mL per cell line. The mixed cell lines were seeded at 200,000 cells per well in a 96-well round-bottom plate and incubated for 20 minutes at room temperature. After incubation, the cells were centrifuged and incubated with anti-TREM2 antibodies of about 0-200 nM dose titration for 45 minutes on ice. After incubation, the cells were centrifuged and washed with FACS buffer three times. […] After incubation, the cells were washed with FACS buffer three times, resuspended in 100 μL of FACS buffer, and analyzed by flow cytometry (BD FACSCanto II, San Jose, Calif.), for which 30,000 events were obtained for each sample. Mean fluorescence intensity per cells were calculated by FlowJo software and used for generating dose response binding curve.
as §3

Binder	EC50 [nM]
B8	0.42
B9	0.26
B10	0.64
B11	0.45
B12	0.31
B13	0.51

Molecular target: T5, human TREM2 on the cell surface
Assay: cell binding, human macrophages, dose titration

Binder	EC50 [nM]
B1	1.6
B2	2.1
B3	0.9
B4	11
B5	4.8
B6	1.3
B7	2.1

Molecular target: T4, His-tagged human TREM2 ECD
Assay: SPR (Biacore), antibody captured via anti-human Fab, recombinant TREM2 ECD injected, 1:1 fit
Experimental: as §2

Binder	Kd [nM]
B1	4.04
B2	7.81
B3	6.27
B4	3.37
B5	1.82
B6	25.7
B7	1.52

Molecular target: T5, human TREM2 on the cell surface
Assay: cell-based or functional assay

Binder	NFAT EC50 (nM), plate coated mAb [nM]	Survival EC50 (nM), plate coated mAb, human macrophages [nM]	pSyk activation (human macrophages) EC50 (nM)
B1	195	17.8	24.2
B2	185	24.8	24.8
B3	11.7		37.4
B4	20.5		11.9
B5	69.9		20.7
B6	98.3		12
B7	67.7	5.7	14.3

From patent publication US20220119522A1 (DENALI THERAPEUTICS, published 2022)
